In paper PMC6855506:

How the values were obtained:
[1] = molecular target: T1, AphA (Vibrio cholerae) (UniProt Q9X399); assay: EMSA; settings: 40 mM Tris acetate pH 7.9, 50 mM KCl, 5 mM MgCl2, 500 uM DTT, 12.5 ug/ml herring sperm DNA; EMSA 15 min at 37 C
T1 sequence: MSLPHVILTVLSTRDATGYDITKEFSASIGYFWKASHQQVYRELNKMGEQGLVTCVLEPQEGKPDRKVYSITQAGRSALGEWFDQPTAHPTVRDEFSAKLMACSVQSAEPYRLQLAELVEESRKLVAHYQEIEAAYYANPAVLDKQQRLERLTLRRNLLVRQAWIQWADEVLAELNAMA

[2] = molecular target: T2, CRP (Vibrio cholerae) (UniProt O34015); assay: EMSA; settings: 40 mM Tris acetate pH 7.9, 50 mM KCl, 5 mM MgCl2, 500 uM DTT, 12.5 ug/ml herring sperm DNA; EMSA 15 min at 37 C
T2 sequence: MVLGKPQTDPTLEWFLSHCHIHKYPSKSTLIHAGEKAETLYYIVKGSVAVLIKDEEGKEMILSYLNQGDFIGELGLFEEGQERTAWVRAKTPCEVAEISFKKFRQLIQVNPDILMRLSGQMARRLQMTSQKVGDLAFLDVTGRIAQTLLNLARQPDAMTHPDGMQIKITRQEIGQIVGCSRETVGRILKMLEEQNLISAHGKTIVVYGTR

## AATTCCATTTCCCAAAATCCTTTGCAAACCGTGAGAGGATGATGAATCAACTTGCATAGATGCTAACAGCTATCAAAAATGGCGTTGTTTTATAAAGAGAAGTAATGGAAATGA / AGCTTCATTTCCATTACTTCTCTTTATAAAACAACGCCATTTTTGATAGCTGTTAGCATCTATGCAAGTTGATTCATCATCCTCTCACGGTTTGCAAAGGATTTTGGGAAATGG [VC0857-VC0858 intergenic region]
[1]
  binding: binds

## AATTCTAGAGGAGCAACAAAAAATTGACGCTGTGATACTGGTCTCATAATCTGGCGCAAAAGTATTGCATCGATGTGAGATAAGTCCAGACTTATTTCTCTTCGTAAACTATCATTAGCTTCATAAAACAAGCA / AGCTTGCTTGTTTTATGAAGCTAATGATAGTTTACGAAGAGAAATAAGTCTGGACTTATCTCACATCGATGCAATACTTTTGCGCCAGATTATGAGACCAGTATCACAGCGTCAATTTTTTGTTGCTCCTCTAG [tfoX promoter wild type]
[1]
  binding: binds
[2]
  binding: binds
